The source of these data is article PMC5458082, “Fibril polymorphism affects immobilized non-amyloid flanking domains of huntingtin exon1 rather than its polyglutamine core” (Nature Communications, 2017).

B1: mutant huntingtin exon1 with a 44-residue polyQ domain, released from the MBP fusion protein by Factor Xa (domain or fragment)
chain: MATLEKLMKAFESLKSFQQQQQQQQQQQQQQQQQQQQQQQQQQQQQQQQQQQQQQQQQQQQPPPPPPPPPPPQLPQPPPQAQPLLPQPQPPPPPPPPPPGPAVAEEPLHRPSGS
notes: huntingtin exon1; The polyQ domain is expanded to 44 Gln against the UniProt entry. numbers count on: this Q44 construct from Met1; linker before the C-terminal His6, translated from the printed DNA; Uniformly 13C,15N-labelled for the ssNMR samples; Forms narrow (~6 nm) fibrils at 37 °C and wide (~15 nm) fibrils at 22 °C; both are the same chain; also called htt exon1; mutant htt exon1; source: …
B2: htt^NTQ23P10K2 peptide (peptide)
peptide: MATLEKLMKAFESLKSFQQQQQQQQQQQQQQQQQQQQQQQPPPPPPPPPPKK
notes: written out from the printed formula Q23P10K2: 23 Gln, 10 Pro, 2 Lys; also called shorter peptides with a 23-residue polyQ domain

Data set [1] deals with the molecule itself. Briefly: fibril formation, seen by negative-stain TEM + FTIR + MAS solid-state NMR; htt exon1 released from the MBP fusion by Factor Xa at 22 or 37 °C in PBS pH 7.4 with 0.02% sodium azide; mature fibrils pelleted and washed.
For data set [2], the target named is B1. Briefly: seeded and unseeded aggregation kinetics (ThT fluorescence + HPLC-based sedimentation assay); disaggregated htt^NTQ23P10K2 peptide in PBS pH 7.0 at 37 °C, with or without 20 mol-% sonicated htt exon1 fibril seeds formed at 22 or 37 °C. Particulars: both partners purified.

In the case of B1, the binding result in data set [1] was “binds”.

As to B2, the binding result in data set [2] is listed as “binds”.
